Reference: the supplement of paper PMC7125110
± gives the standard error. This sample holds only a part of the variants without activity.

B1: glmS ribozyme (parent)
chain: AUAAAAGCGCCAGAACUACAGAAAUGUAGUUGACGAGGAGGAGGUUUAUCGAAUUUUCGGCGGAUGCCUCCAAA

Experiments:
Settings in all cases: with glucosamine-6-phosphate
glucosamine-6-phosphate [1] = variants of: B1; assay: self-cleavage kobs at 40 uM GlcN6P; higher = faster cleavage; RNA array
Procedure, shortened: (§1)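 Using a hybridised Cy3 probe at 37 °C, barcoded ribozyme variants transcribed in situ by E. coli RNA polymerase on sequenced MiSeq chips were monitored across tiles imaged over ~14 h. The flow contained glucosamine-6-phosphate from 40 μM to 10 mM in HEPES/KCl/Mg(OAc)2 buffer. Signals were normalised to baseline and to non-cleaving reference variants before per-tile medians were fit to one- or two-exponential decays to yield kobs. Weighted Michaelis–Menten fits across concentrations gave kcat and KM.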

glucosamine-6-phosphate [2] = variants of: B1; assay: self-cleavage kobs at 10000 uM GlcN6P; higher = faster cleavage; RNA array
Procedure, shortened: as §1

glucosamine-6-phosphate [3] = variants of: B1; assay: self-cleavage kobs at 160 uM GlcN6P; higher = faster cleavage; RNA array
Procedure, shortened: as §1

glucosamine-6-phosphate [4] = variants of: B1; assay: self-cleavage kobs at 640 uM GlcN6P; higher = faster cleavage; RNA array
Procedure, shortened: as §1

glucosamine-6-phosphate [5] = variants of: B1; assay: self-cleavage kobs at 2500 uM GlcN6P; higher = faster cleavage; RNA array
Procedure, shortened: as §1

Variant	self-cleavage kobs at 40 uM GlcN6P (glucosamine-6-phosphate [1]) [s⁻¹]	self-cleavage kobs at 10000 uM GlcN6P (glucosamine-6-phosphate [2]) [s⁻¹]	self-cleavage kobs at 160 uM GlcN6P (glucosamine-6-phosphate [3]) [s⁻¹]	self-cleavage kobs at 640 uM GlcN6P (glucosamine-6-phosphate [4]) [s⁻¹]	self-cleavage kobs at 2500 uM GlcN6P (glucosamine-6-phosphate [5]) [s⁻¹]
G13U C50G C61G G62A U65G C68U	9.2e-05 ± 3.1e-05	3.93e-05 ± 1.7e-05			
C10G G13A	< 1e-05		< 1e-05	< 1e-05	
A14G U31A A36U A64G	< 1e-05				
A15G G35C	< 1e-05			< 1e-05	< 1e-05
A12G A36G G38C	< 1e-05				
A15G G29U U56G G63A	< 1e-05				
G13U G32U A36G G38C U54G	< 1e-05				
A14U A33C G35C U55C	< 1e-05	< 1e-05			
A14G U47G C58G C71U	4.07e-05 ± 2e-05	9.43e-05 ± 1.6e-05			
G13A G59C	< 1e-05	< 1e-05	< 1e-05		
A14G G21U C67U	0.000937 ± 0.00021				
C10G C61U	< 1e-05	< 1e-05	< 1e-05	< 1e-05	
A12G C16A U30G A36G	< 1e-05				
C10U A14C A36G G41A	< 1e-05		< 1e-05	< 1e-05	< 1e-05
A14U G41C C70G	0.000998 ± 0.00029	0.0658 ± 0.026	0.00172 ± 0.00056	0.00931 ± 0.0023	0.0459 ± 0.018
A15C A36U	< 1e-05	< 1e-05			
A14C G35U C70U	< 1e-05	< 1e-05			
C11G A39G G63U	< 1e-05	< 1e-05			< 1e-05
A14C C70U	0.000159 ± 1.4e-05	0.00953 ± 0.0013	0.000308 ± 3.9e-05	0.000897 ± 9.5e-05	0.00439 ± 0.0007
C10G G32U C58A C70G	5.06e-05 ± 1.8e-05				
A12U A42U G59C	< 1e-05				
A12G G32C G37U C71G	< 1e-05				
C11G A48U G63C	< 1e-05	< 1e-05			
C10U G13A C67A	< 1e-05	< 1e-05		< 1e-05	
C11A A12C G32U C50G	0.000123 ± 3.9e-05	0.000269 ± 6.1e-05			

Variant	self-cleavage kobs at 40 uM GlcN6P (glucosamine-6-phosphate [1]) [s⁻¹]	self-cleavage kobs at 10000 uM GlcN6P (glucosamine-6-phosphate [2]) [s⁻¹]	self-cleavage kobs at 160 uM GlcN6P (glucosamine-6-phosphate [3]) [s⁻¹]	self-cleavage kobs at 640 uM GlcN6P (glucosamine-6-phosphate [4]) [s⁻¹]	self-cleavage kobs at 2500 uM GlcN6P (glucosamine-6-phosphate [5]) [s⁻¹]
A14C U55A U56G	0.002 ± 0.00048			0.0195 ± 0.0041	0.0295 ± 0.013
G13A A36G C50G G66C	0.000105 ± 3.1e-05				
C10U G29A U47G	< 1e-05				
C10G G40A	< 1e-05	< 1e-05		< 1e-05	< 1e-05
C11G G32U	< 1e-05	< 1e-05	< 1e-05		
A15G C50G C70U	5.62e-05 ± 1.6e-05	4.88e-05 ± 1.3e-05		0.000167 ± 3.8e-05	0.00023 ± 5.9e-05
G13C C34A	< 1e-05	< 1e-05		< 1e-05	
C10U A12G G13C	< 1e-05	< 1e-05			
C11A G51U A52G U57A G66C C70A	5.04e-05 ± 1.9e-05	5e-05 ± 1.4e-05			
A15G U46G A48U G59A	< 1e-05	< 1e-05	< 1e-05		< 1e-05
A15C G37C G40A G43U	< 1e-05	< 1e-05			
A15U A33G G38C G40C C68U	< 1e-05	< 1e-05			
A14C C71U	0.000147 ± 1.3e-05	0.00794 ± 0.00094	0.000353 ± 3.7e-05	0.000938 ± 9.2e-05	0.00483 ± 0.00086
G13U A42C A53C C68A	< 1e-05				
A12G C16A A36G U69C	< 1e-05				
G13A C50G C68G	7.03e-05 ± 1.5e-05	9.04e-05 ± 1.9e-05			0.000125 ± 2.6e-05
A14G U54A	0.00167 ± 0.00022	0.103 ± 0.048	0.00342 ± 0.0007	0.027 ± 0.0081	0.0173 ± 0.0047
C11G C58A A64G	< 1e-05				
A14C C68U C71U	< 1e-05				
C11G C34A	< 1e-05	< 1e-05	< 1e-05		< 1e-05
A15C A39G	0.000398 ± 9.2e-05	0.013 ± 0.0025		0.00224 ± 0.00049	0.00476 ± 0.0014
C10G C34U G38C A64C C67U	< 1e-05	< 1e-05			
A12G A36C	< 1e-05		< 1e-05	< 1e-05	< 1e-05
A12U C50G G59U U69C	0.000143 ± 4.1e-05	0.000187 ± 4.7e-05			8.19e-05 ± 3e-05
A14C G43C	< 1e-05			< 1e-05	< 1e-05
